# Laboratory results from the PETadex activity labels (doi:10.1128/aem.01704-22).
# B1: unnamed (protein)
# chain: MALYPSARWVLDRMAERGTRPFNEVPVERARQQFDAMMAGAPRPEVARTEDRTVPGPAGDIPVRIYWPQQQTLPLLLVYFHGGGWIMGSIESHDPTCRAIANVAGCIVVSVGYRLAPEHKFPEPLEDCYAAVRWAEENAASLGADPSLLAVGGDSAGGNLAAAVSLLARDRGGPRLAHQVLAYPVLSHGAAFPSYEENADGYFLTREMMLYCWRQYLRDEKDGDDPYASPLKASELSGLPTATIITAEHDPLRDEAEAYGVRLAQAGVPNYCLRYVGMIHGFLSLDNLLPPGRHALWSVATGLRLAATETHKRA
# B2: unnamed (protein)
# chain: MALDPGAAALLQQMAQAGVPPFNQMTVQQARQSMTGLAGTAPKYPVAKVEDRTIPGPAGQIPVRIYWPISGQKVGLVVYYHGGGWVICDLETHDGTCRQLANASDCIVMSVDYRLAPEHKFPAAVEDCYAAAAWAAENAATFGVDPSRLVVAGDSAGGNLAAVVALLAKERGGPRLAHQVLIYPVTDYSFDRPSYRENAEGYLLTRDAMEWFWRHYLNSDADGQNPLASPLRAPDLRGLPSATVITAEYDPLRDEGEAYAQRLMEAGVPTTCVRYLGQIHGFVTLEHVLPAGRQALLALGATIKGVLTGALGGQPAAA
# Substrate: p-NP-C2
# Experiment: not given
# Conditions: pH 9; 30 °C
Protein,Km [µM],kcat [s⁻¹],kcat/Km [s⁻¹ M⁻¹]
B1,50,42,839000
B2,220,57.1,260000

# Substrate: p-NP-C4
# Experiment: not given
# Conditions: pH 9; 30 °C
Protein,Km [µM],kcat [s⁻¹],kcat/Km [s⁻¹ M⁻¹]
B1,60,66.2,1.1e+06
B2,80,8.77,110000

# Substrate: p-NP-C6
# Experiment: not given
# Conditions: pH 9; 30 °C
Protein,Km [µM],kcat [s⁻¹],kcat/Km [s⁻¹ M⁻¹]
B1,40,1.45,36200
B2,90,0.318,3530

# Substrate: PET
# Experiment: Proxy for plastic degradation [Released monomer concentration (HPLC/LC-MS) (BHET)]
# Conditions: pH 8
row,Protein,Proxy for plastic degradation [mM]
1,B1,0.126
2,B2,0.075
